From patent US20220275038A1 (TOKYO MEDICAL UNIVERSITY, published 2022)
Blank lines part the entries; values can stand above or below the molecule they belong to.

Key:
[1] = target: CLSPCOL (hybrid polypeptide of CLSP(1-61), MycHisG and the collagen-homologous region of adiponectin) (human); test: cell-based or functional assay
[2] = target: human CLSP-MycHis (calmodulin-like skin protein, C-terminally tagged with MycHis) (human) (UniProt Q9NZT1); test: cell-based or functional assay
[3] = target: CLSP(1-61)-MycHis (N-terminal region of CLSP, amino acid 1-61, C-terminally tagged with MycHis) (human) (UniProt Q9NZT1); test: cell-based or functional assay
[4] = target: T1, apolipoprotein E4 C-terminally tagged with FLAG (overexpressed in F11 cells, immunoprecipitated with FLAG … (human, UniProt P02649 19-317)); test: pull-down of purified MycHis-tagged CLSP proteins with ApoE4-FLAG immunoprecipitated on M2 agarose beads, WB anti-myc [ApoE4 beads]
T1 construct: also called ApoE4-FLAG; ApoE4; not shown: C-terminal FLAG tag
T1 sequence (P02649 19-317 C130R limits assumed): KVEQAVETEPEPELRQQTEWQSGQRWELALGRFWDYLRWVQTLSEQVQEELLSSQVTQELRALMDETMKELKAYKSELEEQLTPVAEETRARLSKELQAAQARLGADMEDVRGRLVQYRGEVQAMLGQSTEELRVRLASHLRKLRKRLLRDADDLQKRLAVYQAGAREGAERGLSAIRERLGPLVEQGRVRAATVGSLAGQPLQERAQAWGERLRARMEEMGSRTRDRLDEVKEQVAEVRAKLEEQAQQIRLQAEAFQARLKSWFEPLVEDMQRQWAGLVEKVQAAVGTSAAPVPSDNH

[5] = target: T2, human adiponectin (BioVendor, cat. no. RD172029100) (human, UniProt Q15848 19-244, limits assumed); test: Scatchard analysis; wells coated with 20 pM adiponectin, stepwise CLSP-HiBiT, HiBiT chemiluminescence [plot ADN]
T2 construct: Bought; also called ADN; wild-type adiponectin
T2 sequence: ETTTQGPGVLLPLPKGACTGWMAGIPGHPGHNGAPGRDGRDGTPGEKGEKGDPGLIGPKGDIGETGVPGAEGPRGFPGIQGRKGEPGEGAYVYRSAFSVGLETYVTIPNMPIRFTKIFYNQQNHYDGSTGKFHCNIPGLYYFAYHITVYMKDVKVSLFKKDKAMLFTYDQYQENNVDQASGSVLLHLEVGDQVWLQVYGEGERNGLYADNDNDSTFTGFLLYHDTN
Protocol: (§1) Dissociation constants were calculated by the Scatchard analysis using Prism7 software.
(§2) The dissociation constants (Kd) for the binding between CLSP and adiponectin, and between CLSP and ApoE4 were then measured (FIGS. 8b and c). For this purpose, adiponectin or ApoE4 protein was conjugated to the 96-well plates. Various concentrations of recombinant CLSP C-terminally tagged with HiBiT, a chemiluminescence producing tag, were added to the plates for simultaneous incubation. After washing, the amount of CLSP-HiBiT binding to adiponectin or ApoE4 on the wells was measured. The dissociation constant between adiponectin and CLSP or between ApoE4 and CLSP was measured to be 8.8 or 7.8 pM respectively by Scatchard analysis (FIG. 8c).
(§3) The dissociation constant for the binding between ApoE4 (or adiponectin) and CLSP was measured using Nano-Glo HiBiT Extracellular Detection System (Promega, cat. no.: N2420) in accordance with the instruction. For the coating of recombinant ApoE4 or adiponectin, 100 μl of 50 mM carbonate buffer (pH 9.6) containing 20 pM ApoE4 or adiponectin was incubated overnight at 4° C. in the wells of 96-well plates (Fluorescence-use Black-type Plate H, cat. no.: MS-8596KZ, Sumitomo Bakelite Co., Ltd., Tokyo, Japan). […] Resulting chemiluminescence was measured for each well using Wallac ARVO™ X5 (Perkin Elmer). […]

[6] = target: T3, recombinant human ApoE4 (PeproTech, cat. no. 350-04) (human, UniProt P02649 19-317); test: plate coated with ApoE4, rising CLSP-HiBiT, chemiluminescence (Nano-Glo HiBiT), Scatchard analysis; ApoE4 on the plate
T3 construct: also called apolipoprotein E4
T3 sequence (P02649 19-317 C130R limits assumed): as the sequence (P02649 19-317 C130R limits assumed) above
Protocol: as §2
as §3, with “Japan). The protein-coated plates were washed three times with 200 μl of PBS. Then, 150 μl of PBS containing 1% skim milk (GIBCO) was added to each well.” for “Japan).”

[7] = target: T3, recombinant human ApoE4 (PeproTech, …); test: Scatchard analysis; wells coated with 20 pM recombinant ApoE4, stepwise CLSP-HiBiT, HiBiT chemiluminescence [plot ApoE4]
Protocol: as §1, §2, §3

[8] = target: T2, human adiponectin (BioVendor, cat. no. …); test: plate coated with adiponectin, rising CLSP-HiBiT, chemiluminescence (Nano-Glo HiBiT), Scatchard analysis; adiponectin on the plate
Protocol: as §2
as §3, with “Japan). The protein-coated plates were washed three times with 200 μl of PBS. Then, 150 μl of PBS containing 1% skim milk (GIBCO) was added to each well.” for “Japan).”

[9] = target: T1, apolipoprotein E4 C-terminally tagged …; test: pull-down with immunoprecipitated ApoE4-FLAG, immunoblot (FIG. 15 a, b)
Protocol: (a, b) <Apolipoprotein E4 binds to the C-terminal region of CLSP> A schematic illustration of deletion mutants of CLSP is shown in (a). Apolipoprotein E4 (ApoE4) and adiponectin (ADN), C-terminally tagged with FLAG, were overexpressed in F11 neurohybrid cells by transfection. At 24 hours after the transfection, the cell lysates of F11 cells were prepared. For immunoprecipitation of ApoE4-FLAG and ADN-FLAG using the FLAG antibody, 300 μg of cell lysates was used. Recombinant CLSP-MycHis (FL-MH) or C-terminally MycHis-tagged CLSP deletion mutants produced in bacteria were purified. These immunoprecipitates and recombinant proteins were then subjected to SDS-PAGE and immunoblot analysis using the myc and FLAG antibodies (inputs). The ApoE4-FLAG and ADN-FLAG immunoprecipitates were mixed with recombinant CLSP-MycHis (FL-MH) or C-terminally MycHis-tagged CLSP deletion mutants and incubated at 4° C. overnight, followed by exhaustive washing. The pulled-down precipitates were then subjected to SDS-PAGE and immunoblotted using the myc and FLAG antibodies. (c) <CLSP binds to the collagen-homologous region of adiponectin> The collagen-homologous region of adiponectin (ADNCol), N-terminally tagged with 6×His and G(HisG), was produced in bacteria. In addition, CLSP-FLAG was overexpressed in F11 neurohybrid cells by transfection. […]

Molecule: calreticulin
inhibition of the cell death-suppressing activity of 100 pM CLSPCOL; concentration at which inhibition began [1]: 1 nM | inhibition of the CLSP-mediated protection of V642I-APP-induced neuronal death; concentration for complete inhibition of 10 nM CLSP [2]: 50 nM | inhibition of the cell death-suppressing activity of CLSP1-61 (cell death assay, FIG. 19) [3]: 10 fold amount

Molecule: recombinant GST-human 14-3-3σ (from UniProt P31947 1-248)
inhibition of the CLSP-mediated protection of V642I-APP-induced neuronal death; concentration at which inhibition of 10 nM CLSP began [2]: 10 nM | inhibition of the CLSP-mediated protection of V642I-APP-induced neuronal death; concentration for complete inhibition of 10 nM CLSP [2]: 20 nM | inhibition of the cell death-suppressing activity of CLSP1-61 (cell death assay, FIG. 19) [3]: 10 fold amount

binding result [4]: no binding
B1: CLSP deletion mutant EHR, C-terminally tagged with MycHis (consists of only the endogenous humanin-homogenous region) (peptide)
chain: TGKNLSEAQLRKLISEVDSDGD
notes: also called mutants consisting of only EHR; not shown: C-terminal MycHis tag

Kd [5]: 7.8 pM | Kd [6]: 7.8 pM | Kd [7]: 8.8 pM | Kd [8]: 8.8 pM
B2: CLSP-HiBiT (recombinant CLSP C-terminally tagged with HiBiT) (ligand)
chain: MAGELTPEEEAQYKKAFSAVDTDGNGTINAQELGAALKATGKNLSEAQLRKLISEVDSDGDGEISFQEFLTAAKKARAGLEDLQVAFRAFDQDGDGHITVDELRRAMAGLGQPLPQEELDAMIREADVDQDGRVNYEEFARMLAQEVSGWRLFKKIS
notes: HiBiT oligonucleotides were put into pGEX-2T-CLSP at the SmaI-EcoRI site; Made 'in the same way' as CLSP-MycHis (GST fusion, thrombin release); also called GST-CLSP-HiBiT (precursor)

binding result [9]: no binding
B3: CLSP(1-61)-MycHis (N-terminal region of CLSP, amino acid 1-61, C-terminally tagged with MycHis) (ligand)
chain: MAGELTPEEEAQYKKAFSAVDTDGNGTINAQELGAALKATGKNLSEAQLRKLISEVDSDGD
notes: Made in bacteria; not shown: C-terminal MycHis tag
